Test results: patent publication US20060115897A1

Legend:
[1] = biological target: C3b (UniProt P01024); test: cell-based or functional assay
[2] = biological target: C4b (UniProt P0C0L4); test: cell-based or functional assay
C4b, sequence (P0C0L4 20-1744): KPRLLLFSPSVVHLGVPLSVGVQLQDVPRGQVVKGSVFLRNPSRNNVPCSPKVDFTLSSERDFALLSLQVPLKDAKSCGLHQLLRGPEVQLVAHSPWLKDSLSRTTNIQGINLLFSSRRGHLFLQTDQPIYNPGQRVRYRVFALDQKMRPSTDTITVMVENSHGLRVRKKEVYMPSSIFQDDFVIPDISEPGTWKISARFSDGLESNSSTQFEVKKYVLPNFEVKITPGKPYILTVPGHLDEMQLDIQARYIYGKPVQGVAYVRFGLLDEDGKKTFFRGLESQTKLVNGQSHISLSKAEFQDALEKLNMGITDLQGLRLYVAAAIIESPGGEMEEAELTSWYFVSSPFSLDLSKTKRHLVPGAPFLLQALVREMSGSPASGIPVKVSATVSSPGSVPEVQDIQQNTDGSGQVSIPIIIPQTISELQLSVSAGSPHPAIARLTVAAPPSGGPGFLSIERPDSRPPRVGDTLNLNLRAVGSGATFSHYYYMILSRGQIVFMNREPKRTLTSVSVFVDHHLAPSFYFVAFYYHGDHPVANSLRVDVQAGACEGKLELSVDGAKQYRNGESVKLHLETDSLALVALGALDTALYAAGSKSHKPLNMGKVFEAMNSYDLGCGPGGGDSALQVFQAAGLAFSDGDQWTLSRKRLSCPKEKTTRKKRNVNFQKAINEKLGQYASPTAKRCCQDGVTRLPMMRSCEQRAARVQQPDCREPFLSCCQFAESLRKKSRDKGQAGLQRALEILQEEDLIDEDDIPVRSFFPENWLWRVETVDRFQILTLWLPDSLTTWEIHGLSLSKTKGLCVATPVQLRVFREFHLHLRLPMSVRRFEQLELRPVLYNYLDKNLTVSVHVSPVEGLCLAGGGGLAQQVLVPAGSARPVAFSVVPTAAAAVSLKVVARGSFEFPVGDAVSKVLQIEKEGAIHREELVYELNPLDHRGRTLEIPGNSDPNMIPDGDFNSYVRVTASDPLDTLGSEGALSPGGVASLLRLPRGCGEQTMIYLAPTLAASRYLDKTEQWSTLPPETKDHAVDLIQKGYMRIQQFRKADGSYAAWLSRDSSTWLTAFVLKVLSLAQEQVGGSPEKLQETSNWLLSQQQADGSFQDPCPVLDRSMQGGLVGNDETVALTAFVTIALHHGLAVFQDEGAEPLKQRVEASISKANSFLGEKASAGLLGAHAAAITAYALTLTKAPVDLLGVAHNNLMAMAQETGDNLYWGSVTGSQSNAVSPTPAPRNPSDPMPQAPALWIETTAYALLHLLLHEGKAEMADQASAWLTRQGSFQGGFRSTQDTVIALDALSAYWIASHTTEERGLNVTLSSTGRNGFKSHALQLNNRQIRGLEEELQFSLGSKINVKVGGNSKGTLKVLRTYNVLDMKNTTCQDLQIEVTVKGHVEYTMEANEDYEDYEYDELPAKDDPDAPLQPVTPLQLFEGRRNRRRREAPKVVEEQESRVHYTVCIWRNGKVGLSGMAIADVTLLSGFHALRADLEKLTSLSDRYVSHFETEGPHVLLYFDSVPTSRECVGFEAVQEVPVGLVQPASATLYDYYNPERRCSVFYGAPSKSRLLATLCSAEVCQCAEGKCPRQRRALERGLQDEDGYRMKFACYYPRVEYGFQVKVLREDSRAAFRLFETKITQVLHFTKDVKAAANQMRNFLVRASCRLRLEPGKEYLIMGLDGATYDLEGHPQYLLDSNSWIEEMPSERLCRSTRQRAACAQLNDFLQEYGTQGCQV

C3b, sequence (P01024 749-1663 limits assumed, chain 1 of 2): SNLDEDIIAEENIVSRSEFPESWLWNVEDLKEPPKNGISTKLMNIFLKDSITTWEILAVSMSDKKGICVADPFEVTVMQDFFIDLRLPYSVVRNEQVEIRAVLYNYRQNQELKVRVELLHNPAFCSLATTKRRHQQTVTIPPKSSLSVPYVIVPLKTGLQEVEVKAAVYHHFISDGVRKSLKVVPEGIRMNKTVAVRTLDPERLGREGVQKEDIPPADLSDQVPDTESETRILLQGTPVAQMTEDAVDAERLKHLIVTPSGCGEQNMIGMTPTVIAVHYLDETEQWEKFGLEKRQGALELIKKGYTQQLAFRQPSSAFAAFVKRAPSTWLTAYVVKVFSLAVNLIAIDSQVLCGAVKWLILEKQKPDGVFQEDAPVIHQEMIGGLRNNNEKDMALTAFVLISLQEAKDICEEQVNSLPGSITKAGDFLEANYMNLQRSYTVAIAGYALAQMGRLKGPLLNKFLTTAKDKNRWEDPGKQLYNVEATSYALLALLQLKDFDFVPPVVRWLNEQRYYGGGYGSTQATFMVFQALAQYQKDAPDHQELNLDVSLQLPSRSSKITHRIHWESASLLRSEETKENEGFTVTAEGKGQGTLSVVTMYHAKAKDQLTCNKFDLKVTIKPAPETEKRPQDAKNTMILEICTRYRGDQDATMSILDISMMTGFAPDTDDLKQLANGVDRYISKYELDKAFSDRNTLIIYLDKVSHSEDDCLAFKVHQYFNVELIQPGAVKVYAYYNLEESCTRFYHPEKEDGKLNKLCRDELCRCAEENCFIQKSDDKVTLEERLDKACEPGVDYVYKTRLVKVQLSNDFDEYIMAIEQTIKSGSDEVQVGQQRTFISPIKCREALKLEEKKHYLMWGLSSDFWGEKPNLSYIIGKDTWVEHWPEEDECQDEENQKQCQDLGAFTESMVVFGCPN
C3b, sequence (P01024 23-667 limits assumed, chain 2 of 2): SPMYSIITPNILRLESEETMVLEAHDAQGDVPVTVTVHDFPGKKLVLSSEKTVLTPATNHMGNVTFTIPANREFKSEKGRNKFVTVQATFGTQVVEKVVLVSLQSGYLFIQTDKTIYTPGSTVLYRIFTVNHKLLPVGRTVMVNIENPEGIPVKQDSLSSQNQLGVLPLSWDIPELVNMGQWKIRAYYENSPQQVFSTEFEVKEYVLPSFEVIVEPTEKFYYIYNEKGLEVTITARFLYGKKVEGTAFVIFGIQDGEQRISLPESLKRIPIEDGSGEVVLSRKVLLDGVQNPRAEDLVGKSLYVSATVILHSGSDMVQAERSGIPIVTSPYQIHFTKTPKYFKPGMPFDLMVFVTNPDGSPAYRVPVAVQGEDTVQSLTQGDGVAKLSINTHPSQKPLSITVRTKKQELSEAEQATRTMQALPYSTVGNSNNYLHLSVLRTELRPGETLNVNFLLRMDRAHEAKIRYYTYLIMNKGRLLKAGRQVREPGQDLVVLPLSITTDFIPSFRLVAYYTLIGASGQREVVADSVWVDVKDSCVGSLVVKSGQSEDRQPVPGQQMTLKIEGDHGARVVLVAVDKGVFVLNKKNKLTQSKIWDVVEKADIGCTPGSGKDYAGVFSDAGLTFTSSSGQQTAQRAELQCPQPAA

**Q.** Which results are given for “histidine-tagged Smallpox Inhibitor of Complement Enzymes (SPICEhis) (from UniProt P68638 20-263)”?
**A.** efficiency as cofactor in the degradation of C3b, against VCPhis [1]: 100 fold; speed as cofactor in the degradation of C4b, against VCPhis [2]: 6 fold
